B1: BaxA10 (antibody, V domains shown)
VH: EVQLLESGGGLVQPGGSLRLSCAASGFTFSWYAMDWVRQAPGKGLEWVSGIYPSGGRTKYADSVKGRFTISRDNSKNTLYLQMNSLRAEDTAVYYCARVNVIAVAGTGYYYYGMDVWGQGTTVTVSS
VL: DIQMTQSPGTLSLSPGERATLSCRASQGVSSSSLAWYQQKPGQAPRLLIYGTSSRATGIPDRFSGSASGTDFTLTISRLQPEDFAVYYCQQYGRSLTFGGGTKVEIK
B2: Bax69 (antibody, V domains shown)
VH: EVQLLESGGGLVQPGGSLRLSCAASGFTFSIYSMNWVRQAPGKGLEWVSSIGSSGGTTYYADSVKGRFTISRDNSKNTLYLQMNSLRAEDTAVYYCAGSQWLYGMDVWGQGTTVTVSS
VL: DIQMTQSPSSLSASVGDRVTITCRSSQRIMTYLNWYQQKPGKAPKLLIFVASHSQSGVPSRFRGSGSETDFTLTISGLQPEDSATYYCQQSFWTPLTFGGGTKVEIK
B3: anti-MIF antibody Bax94 (antibody, V domains shown)
VH: EVQLLESGGGLVQPGGSLRLSCAASGFTFSIYAMDWVRQAPGKGLEWVSGIVPSGGFTKYADSVKGRFTISRDNSKNTLYLQMNSLRAEDTAVYYCARVNVIAVAGTGYYYYGMDVWGQGTTVTVSS
VL: DIQMTQSPGTLSLSPGERATLSCRASQGVSSSSLAWYQQKPGQAPRLLIYGTSSRATGIPDRFSGSASGTDFTLTISRLQPEDFAVYYCQQYGRSLTFGGGTKVEIK
B4: Bax74 (antibody, V domains shown)
VH: EVQLLESGGGLVQPGGSLRLSCAASGFTFSKYYMIWVRQAPGKGLEWVSWIGPSGGFTFYADSVKGRFTISRDNSKNTLYLQMNSLRAEDTAVYYCARGTPDYGGNSLDHWGQGTLVTVSS
VL: DIQMTQSPSSLPASVGDRVTITCRASQSIGTYLSWYQHKPGNAPKLLIYATSRLQSGVPSRFSGGGSGTRFTLAISSLQPDDFATYFCQQTYSTPLTFGGGTKVDIK
B5: Bax152 (antibody, V domains shown)
VH: EVQLLESGGGLVQPGGSLRLSCAASGFTFSIYAMDWVRQAPGKGLEWVSGIVPSGGFTKYADSVKGRFTISRDNSKNTLYLQMNSLRAEDTAVYYCARVNVIAVAGTGYYYYGMDVWGQGTTVTVSS
VL: DIQMTQSPVTLSLSPGERATLSCRASQSVRSSYLAWYQQKPGQTPRLLIYGASNRATGIPDRFSGSGSGTDFTLTISRLEPEDFAVYYCQQYGNSLTFGGGTKVEIK

Each binder was assayed against recombinant human MIF (macrophage migration inhibitory factor) (human, UniProt P14174 2-115) (assay: Biacore; Fab fragment).
Chain of recombinant human MIF (macrophage migration inhibitory factor) (P14174 2-115): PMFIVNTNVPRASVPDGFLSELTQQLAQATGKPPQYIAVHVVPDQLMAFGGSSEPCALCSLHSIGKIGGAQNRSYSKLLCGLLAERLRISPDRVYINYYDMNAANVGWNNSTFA
In the case of B1, the Kd is reported as 0.4 nM.
With B2 the Kd was 55 nM.
With B3 the Kd was 4 nM.
B4 showed a Kd of 93 nM.
B5 was tested, and the Kd was 16 nM.
